From publication PMC7158967, “Comparative evaluation of ^68Ga-labelled TATEs: the impact of chelators on imaging” (EJNMMI Research, 2020)
Where two headings read alike, the source gives them in different places.

Legend:
[1] = Biodistribution in AR42J tumour-bearing nude mice; settings: mouse, in vivo; for tissue to tissue ratio at 0.25 h / tissue to tissue ratio at 0.5 h / tissue to tissue ratio at 1 h / tissue to tissue ratio at 2 h: both sexes, nude, iv, 0.1 mCi, total radioactivity
Description: (§1) Tumour cells were subcutaneously injected into the left forelimb of each nude mouse. Biodistribution and imaging studies were conducted when the tumour volume reached at least 1.0 × 1.0 × 1.0 cm^3.

[2] = system: KM mice; settings: mouse, in vivo
Description: Thirty KM mice were randomly divided into a control group, a ^68Ga- NOTA-TATE low-dose group (100 μCi) and a high-dose group (1 mCi). Each group contained 10 mice, half female and half male. The dose of the appropriate compound was administered through the tail vein at an administration volume of 0.2 mL. The animal blood routine, body weight and animal feed consumption were performed before administration and on days 4, 7, 14, 21 and 28 after administration. At the end of the observation period, the surviving mice were dissected, and histopathological examination was performed on the myocardium, liver, spleen, lung, kidney, stomach, intestine, gonad, bone, muscle and brain of each mouse.

[3] = format: in vitro ADME; settings: human
Description: In vitro serum binding studies for both ^68Ga-labelled NOTA-TATE and DOTA-TATE were carried out by following a generalized procedure summarized below. One millilitre of fresh anticoagulated (heparinized) human plasma was prepared. Freshly labelled compound (3.7 MBq, 0.1 mCi) was added to three centrifuge tubes, each containing 0.1 mL of human plasma. After incubation at 37 °C for 2 h, 1 mL of ice-cold methanol was added to each tube. The mixtures were separated by centrifugation (5 min, 3000 rpm) to collect the supernatant, which was repeated three times. A gamma counter was then used to measure the radioactivity of the supernatant (A) and the precipitate (B) in counts per minute (CPM); the plasma-protein binding rate was calculated as PPB = B/(A + B)100%, and the average of three tubes was recorded.

[4] = Micro-PET/CT imaging of AR42J tumour-bearing nude mice; settings: both sexes, mouse, in vivo, iv, 2.96 MBq, total radioactivity, nude mice bearing AR42J tumours, read-out: SUVmax, 3D micro-PET/CT
Description: as §1
Six (3 female and 3 male) mice with AR42J tumour xenografts (15–20 g) were used in the imaging study. All tumour-bearing mice were anaesthetized by intranasal inhalation of isoflurane. […] Images were acquired and reconstructed using micro-PET/CT at 30 min and 2 h after intravenous injection.

[5] = clinical; settings: human, in vivo, total radioactivity
Description: (§2) Twenty-two healthy volunteers gave informed consent and agreed to participate in the study. […] Each patient was injected with an average activity of 1.9 MBq/kg. The timing of image acquisition ranged from 30 to 45 min after injection (3 min/bed position). The PET image was attenuated and then reconstructed using the iterative reconstruction algorithm implemented.

[6] = system: healthy volunteers; test: clinical; settings: human, in vivo
Description: as §2

C[C@@H](O)[C@@H]1NC(=O)[C@H](CCCCN)NC(=O)[C@@H](Cc2c[nH]c3ccccc23)NC(=O)[C@H](Cc2ccccc2)NC(=O)[C@@H](NC(=O)[C@@H](Cc2ccccc2)NC(=O)CN2CCN(CC(=O)O)CCN(CC(=O)O)CC2)CSSC[C@@H](C(=O)N[C@H](CO)[C@@H](C)O)NC1=O [^68Ga-NOTA-TATE, metal not drawn]
tissue to tissue ratio at 0.25 h [1]: 12.5
tissue to tissue ratio at 0.5 h [1]: 8.45
tissue to tissue ratio at 1 h [1]: 39.5
tissue to tissue ratio at 2 h [1]: 44.3
tissue to tissue ratio at 0.25 h ([1]; 15 min postinjection, read-out: Tumour/kidney ratio): 0.18
tissue to tissue ratio at 0.5 h ([1]; 0.5 h postinjection, read-out: Tumour/kidney ratio): 0.94
tissue to tissue ratio at 1 h ([1]; 1 h postinjection, read-out: Tumour/kidney ratio): 0.81
tissue to tissue ratio at 2 h ([1]; 2 h postinjection, read-out: Tumour/kidney ratio): 0.79
tissue uptake at 0.25 h ([1]; %ID/g Blood): 3.25 ± 1.06 %ID/g
tissue uptake at 0.5 h ([1]; %ID/g Blood): 1.01 ± 0.42 %ID/g
tissue uptake at 1 h ([1]; %ID/g Blood): 0.58 ± 0.24 %ID/g
tissue uptake at 2 h ([1]; %ID/g Blood): 0.07 ± 0.06 %ID/g
tissue uptake at 0.25 h ([1]; %ID/g Gallbladder): 3.62 ± 1.94 %ID/g
tissue uptake at 0.5 h ([1]; %ID/g Gallbladder): 6.21 ± 2.69 %ID/g
tissue uptake at 1 h ([1]; %ID/g Gallbladder): 1.83 ± 0.84 %ID/g
tissue uptake at 2 h ([1]; %ID/g Gallbladder): 1.61 ± 0.67 %ID/g
tissue uptake at 0.25 h ([1]; %ID/g Intestines): 0.07 ± 0.04 %ID/g
tissue uptake at 0.5 h ([1]; %ID/g Intestines): 0.03 ± 0.02 %ID/g
tissue uptake at 1 h ([1]; %ID/g Intestines): 0.21 ± 0.09 %ID/g
tissue uptake at 2 h ([1]; %ID/g Intestines): 0.13 ± 0.07 %ID/g
tissue uptake at 0.25 h ([1]; %ID/g Kidney): 17.1 ± 6.39 %ID/g
tissue uptake at 0.5 h ([1]; %ID/g Kidney): 4.23 ± 2.73 %ID/g
tissue uptake at 1 h ([1]; %ID/g Kidney): 3.79 ± 2.16 %ID/g
tissue uptake at 2 h ([1]; %ID/g Kidney): 1.69 ± 1.02 %ID/g
tissue uptake at 0.25 h ([1]; %ID/g Liver): 1.19 ± 0.54 %ID/g
tissue uptake at 0.5 h ([1]; %ID/g Liver): 0.43 ± 0.23 %ID/g
tissue uptake at 1 h ([1]; %ID/g Liver): 0.07 ± 0.04 %ID/g
tissue uptake at 2 h ([1]; %ID/g Liver): 0.04 ± 0.02 %ID/g
tissue uptake at 0.25 h ([1]; %ID/g Lungs): 3.64 ± 1.56 %ID/g
tissue uptake at 0.5 h ([1]; %ID/g Lungs): 0.21 ± 0.17 %ID/g
tissue uptake at 1 h ([1]; %ID/g Lungs): 0.64 ± 0.41 %ID/g
tissue uptake at 2 h ([1]; %ID/g Lungs): 0.48 ± 0.21 %ID/g
tissue uptake at 0.25 h ([1]; %ID/g Muscle): 0.26 ± 0.03 %ID/g
tissue uptake at 0.5 h ([1]; %ID/g Muscle): 0.47 ± 0.26 %ID/g
tissue uptake at 1 h ([1]; %ID/g Muscle): 0.08 ± 0.06 %ID/g
tissue uptake at 2 h ([1]; %ID/g Muscle): 0.03 ± 0.01 %ID/g
tissue uptake at 0.25 h ([1]; %ID/g Skeleton): 2.14 ± 1.41 %ID/g
tissue uptake at 0.5 h ([1]; %ID/g Skeleton): 1.46 ± 0.37 %ID/g
tissue uptake at 1 h ([1]; %ID/g Skeleton): 0.85 ± 0.38 %ID/g
tissue uptake at 2 h ([1]; %ID/g Skeleton): 0.13 ± 0.07 %ID/g
tissue uptake at 0.25 h ([1]; %ID/g Spleen): 0.19 ± 0.08 %ID/g
tissue uptake at 0.5 h ([1]; %ID/g Spleen): 0.13 ± 0.11 %ID/g
tissue uptake at 1 h ([1]; %ID/g Spleen): 0.12 ± 0.06 %ID/g
tissue uptake at 2 h ([1]; %ID/g Spleen): 0.03 ± 0.01 %ID/g
tissue uptake at 0.25 h ([1]; %ID/g Stomach): 0.19 ± 0.13 %ID/g
tissue uptake at 0.5 h ([1]; %ID/g Stomach): 3.55 ± 1.83 %ID/g
tissue uptake at 1 h ([1]; %ID/g Stomach): 1.61 ± 1.03 %ID/g
tissue uptake at 2 h ([1]; %ID/g Stomach): 1.11 ± 0.21 %ID/g
tissue uptake at 0.25 h ([1]; %ID/g Tumour): 3.24 ± 1.03 %ID/g
tissue uptake at 0.5 h ([1]; %ID/g Tumour): 3.97 ± 2.24 %ID/g
tissue uptake at 1 h ([1]; %ID/g Tumour): 3.16 ± 1.92 %ID/g
tissue uptake at 2 h ([1]; %ID/g Tumour): 1.33 ± 0.96 %ID/g
acute animal toxicity, overall finding [2]: no apparent toxicity
histopathological examination [2]: no toxic pathological changes
fraction unbound at 2 h [3]: 0.879
SUV at 0.5 h ([4]; 30 min after i.v. injection): 3.02 SUV
SUV at 2 h ([4]; 120 min after i.v. injection): 1.64 SUV
SUV ([5]; both sexes, 1.9 MBq/kg, SUVmax Adrenals, average): 10.7 SUV
SUV ([5]; both sexes, 1.9 MBq/kg, SUVmax Blood pool, average): 1.4 SUV
SUV ([5]; both sexes, 1.9 MBq/kg, SUVmax Bone marrow, average): 0.9 SUV
SUV ([5]; both sexes, 1.9 MBq/kg, SUVmax Kidneys, average): 14.1 SUV
SUV ([5]; both sexes, 1.9 MBq/kg, SUVmax Large bowel, average): 1.5 SUV
SUV ([5]; both sexes, 1.9 MBq/kg, SUVmax Liver, average): 4.2 SUV
SUV ([5]; both sexes, 1.9 MBq/kg, SUVmax Lungs, average): 0.6 SUV
SUV ([5]; both sexes, 1.9 MBq/kg, SUVmax Lymph nodes, average): 1.2 SUV
SUV ([5]; both sexes, 1.9 MBq/kg, SUVmax Palatine tonsil, average): 1.3 SUV
SUV ([5]; both sexes, 1.9 MBq/kg, SUVmax Pancreas, average): 3.7 SUV
SUV ([5]; both sexes, 1.9 MBq/kg, SUVmax Parotid gland, average): 0.9 SUV
SUV ([5]; both sexes, 1.9 MBq/kg, SUVmax Pituitary gland, average): 1.5 SUV
SUV ([5]; both sexes, 1.9 MBq/kg, SUVmax Small bowel, average): 1.8 SUV
SUV ([5]; both sexes, 1.9 MBq/kg, SUVmax Spleen, average): 14.6 SUV
SUV ([5]; both sexes, 1.9 MBq/kg, SUVmax Stomach, average): 2.4 SUV
SUV ([5]; both sexes, 1.9 MBq/kg, SUVmax Submandibular, average): 1.2 SUV
SUV ([5]; both sexes, 1.9 MBq/kg, SUVmax Thymus, average): 1.1 SUV
SUV ([5]; both sexes, 1.9 MBq/kg, SUVmax Thyroid, average): 1.7 SUV
SUV ([5]; both sexes, iv, 1.9 MBq/kg, SUVmax Breast, average): 0.7 SUV
SUV ([5]; iv, 1.86 mCi, SUVmax kidney, single volunteer): 12.5 SUV
SUV ([5]; iv, 1.86 mCi, SUVmax liver, single volunteer): 1.4 SUV
SUV ([5]; iv, 1.86 mCi, SUVmax pituitary, single volunteer): 1.9 SUV
SUV ([5]; iv, 1.86 mCi, SUVmax spleen, single volunteer): 6.8 SUV
SUV ([5]; iv, 3.83 mCi, SUVmax kidney, single volunteer): 6.2 SUV
SUV ([5]; iv, 3.83 mCi, SUVmax liver, single volunteer): 1.3 SUV
SUV ([5]; iv, 3.83 mCi, SUVmax pituitary, single volunteer): 0.7 SUV
SUV ([5]; iv, 3.83 mCi, SUVmax spleen, single volunteer): 3.9 SUV
SUVmax Adrenals, range [6]: 5.7~15.6
SUVmax Blood pool, range [6]: 0.9~1.6
SUVmax Bone marrow, range [6]: 0.7~1.1
SUVmax Breast, range [6]: 0.5~1.1
SUVmax Kidneys, range [6]: 6.2~20.3
SUVmax Large bowel, range [6]: 1.0~2.4
SUVmax Liver, range [6]: 1.3~6.3
SUVmax Lungs, range [6]: 0.3~0.9
SUVmax Lymph nodes, range [6]: 0.8~1.4
SUVmax Palatine tonsil, range [6]: 0.6~1.8
SUVmax Pancreas, range [6]: 2.0~5.5
SUVmax Parotid gland, range [6]: 0.7~1.3
SUVmax Pituitary gland, range [6]: 0.7~2.3
SUVmax Small bowel, range [6]: 1.4~2.5
SUVmax Spleen, range [6]: 10.7~17.1
SUVmax Stomach, range [6]: 1.6~4.9
SUVmax Submandibular, range [6]: 0.7~1.4
SUVmax Thymus, range [6]: 0.6~1.4
SUVmax Thyroid, range [6]: 1.2~2.5
radioactivity in the gallbladder [6]: not seen
side effects after administration [6]: no apparent side effects
uptake in the brain [6]: No apparent
